Columns and labels:
Format in all cases: biochemical
Ret = target: T1, Ret (Homo sapiens, UniProt P07949); assay: Millipore radiometric kinase activity assay, Ret (h); conditions: peptide 100 μM
T1 construct: purchased Millipore (radiometric assay service)
Experimental: (§1) A commercial radiometric assay service (Millipore, Billerica, Mass.) was used to test the specificity and potency of peptides containing a coupled transduction domain and therapeutic domain, hereinafter “complete peptides”). In these assays, if the kinase is not inhibited by an inhibitor peptide, a positively charged substrate is phosphorylated with a radiolabeled phosphate group from an ATP.
(§2) In a final reaction volume of 25 μL, Ret (h) (5-10 mU) is incubated with 8 mM MOPS pH 7.0, 0.2 mM EDTA, 250 μM […] [SEQ ID NO: 56], 10 mM MgAcetate and [γ-^33P-ATP] (specific activity approx. 500 cpm/pmol, concentration as required). The reaction is initiated by the addition of the MgATP mix. After incubation for 40 minutes at room temperature, the reaction is stopped by the addition of 5 μl, of a 3% phosphoric acid solution. 10 μL of the reaction is then spotted onto a P30 filtermat and washed three times for 5 minutes in 75 mM phosphoric acid and once in methanol prior to drying and scintillation counting.
IC50 values for inhibitor peptides were determined using Millipore's IC50Profiler Express service. The IC50 value was estimated from a 10-point curve of one-half log dilutions. […]

KDR = target: T2, KDR (Homo sapiens, UniProt P35968); assay: Millipore radiometric kinase activity assay, KDR (h)
T2 construct: purchased Millipore (assay service)
T2 sequence (P35968 20-1356): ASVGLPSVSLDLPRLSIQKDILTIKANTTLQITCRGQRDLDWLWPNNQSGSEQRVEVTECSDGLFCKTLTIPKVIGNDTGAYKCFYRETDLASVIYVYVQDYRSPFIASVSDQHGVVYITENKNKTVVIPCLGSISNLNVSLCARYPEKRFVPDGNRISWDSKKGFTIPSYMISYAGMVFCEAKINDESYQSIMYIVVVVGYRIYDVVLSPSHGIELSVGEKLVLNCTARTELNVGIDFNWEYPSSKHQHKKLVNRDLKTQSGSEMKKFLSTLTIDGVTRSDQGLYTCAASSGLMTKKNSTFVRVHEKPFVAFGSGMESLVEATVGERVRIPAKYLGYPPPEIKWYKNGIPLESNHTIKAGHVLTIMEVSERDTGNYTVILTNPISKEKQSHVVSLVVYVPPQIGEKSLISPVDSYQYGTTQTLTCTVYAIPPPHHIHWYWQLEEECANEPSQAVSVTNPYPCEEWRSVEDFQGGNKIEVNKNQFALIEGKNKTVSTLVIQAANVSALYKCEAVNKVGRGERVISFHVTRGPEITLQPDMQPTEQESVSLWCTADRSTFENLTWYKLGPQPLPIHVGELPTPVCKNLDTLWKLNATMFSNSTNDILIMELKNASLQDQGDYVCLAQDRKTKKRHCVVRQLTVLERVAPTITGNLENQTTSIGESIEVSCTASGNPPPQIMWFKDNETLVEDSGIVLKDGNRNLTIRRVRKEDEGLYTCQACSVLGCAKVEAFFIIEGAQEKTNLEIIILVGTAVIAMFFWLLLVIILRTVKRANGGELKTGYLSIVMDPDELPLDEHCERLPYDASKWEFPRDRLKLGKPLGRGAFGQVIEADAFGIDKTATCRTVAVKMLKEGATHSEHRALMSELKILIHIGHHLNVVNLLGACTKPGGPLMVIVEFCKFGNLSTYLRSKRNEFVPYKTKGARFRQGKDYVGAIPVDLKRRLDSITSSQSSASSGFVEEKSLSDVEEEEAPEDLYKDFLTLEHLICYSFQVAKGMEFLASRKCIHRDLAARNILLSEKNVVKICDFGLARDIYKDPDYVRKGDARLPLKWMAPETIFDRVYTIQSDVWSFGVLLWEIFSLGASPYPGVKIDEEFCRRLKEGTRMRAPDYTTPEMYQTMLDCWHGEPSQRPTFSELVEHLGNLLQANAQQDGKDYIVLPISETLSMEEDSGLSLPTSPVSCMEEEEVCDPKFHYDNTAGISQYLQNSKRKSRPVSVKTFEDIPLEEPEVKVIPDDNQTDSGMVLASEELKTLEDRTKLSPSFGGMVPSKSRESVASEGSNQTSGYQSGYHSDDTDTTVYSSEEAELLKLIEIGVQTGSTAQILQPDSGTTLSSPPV
Experimental: as §1
In a final reaction volume of 25 μL, KDR (h) (5-10 mU) is incubated with 8 mM MOPS pH 7.0, 0.2 mM EDTA, 0.33 mg/mL myelin basic protein, 10 mM MgAcetate and [γ-^33P-ATP] (specific activity approx. 500 cpm/pmol, concentration as required). The reaction is initiated by the addition of the MgATP mix. After incubation for 40 minutes at room temperature, the reaction is stopped by the addition of 5 μL of a 3% phosphoric acid solution. 10 μL of the reaction is then spotted onto a P30 filtermat and washed three times for 5 minutes in 75 mM phosphoric acid and once in methanol prior to drying and scintillation counting.
(§3) IC50 values for inhibitor peptides were determined using Millipore's IC50Profiler Express service. The IC50 value was estimated from a 10-point curve of one-half log dilutions. For peptides tested for specificity, the concentration of the peptides that inhibited approximately 95% of MK2 activity was chosen to profile against a battery of kinases related to MK2, cell viability, or human disease from MilliporeKinaseProfiler service. In both assays, compounds were supplied in dimethylsulfoxide (DMSO). Every kinase activity measurement was conducted in duplicate.
(§4) Therapeutic inhibitor peptides were assayed for activity against human kinases related to MK2, cell viability, or human disease. The assays were performed using concentrations of therapeutic inhibitor peptides that yielded 2% to 8% of normal MK2 activity. Error is reported as the standard deviation between 2 samples, and “c” is rat AMPK whereas all other kinases used are human kinases.

CHK1 = target: T3, CHK1 (Homo sapiens, UniProt O14757); assay: Millipore radiometric kinase activity assay, CHK1 (h)
T3 construct: purchased Millipore (assay service)
T3 sequence (O14757 1-476): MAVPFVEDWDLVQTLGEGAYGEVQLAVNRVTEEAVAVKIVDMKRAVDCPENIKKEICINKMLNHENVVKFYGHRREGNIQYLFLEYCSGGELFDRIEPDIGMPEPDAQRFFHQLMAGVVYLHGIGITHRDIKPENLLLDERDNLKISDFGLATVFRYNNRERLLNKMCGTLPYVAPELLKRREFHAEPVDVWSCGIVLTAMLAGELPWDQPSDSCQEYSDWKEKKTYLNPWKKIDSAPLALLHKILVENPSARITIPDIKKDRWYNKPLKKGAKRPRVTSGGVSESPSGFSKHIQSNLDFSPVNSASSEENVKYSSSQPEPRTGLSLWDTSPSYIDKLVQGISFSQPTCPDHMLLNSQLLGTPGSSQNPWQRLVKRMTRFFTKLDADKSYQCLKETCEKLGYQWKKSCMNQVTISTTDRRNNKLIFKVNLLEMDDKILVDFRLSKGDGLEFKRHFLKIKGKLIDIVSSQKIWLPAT
Experimental: as §1
as §2, with “CHK1” for “Ret”, “200” for “250”, “53],” for “56],”, “μL” for “μl,”
as §3, §4

TrkA = target: T4, TrkA (Homo sapiens, UniProt P04629); assay: Millipore radiometric kinase activity assay, TrkA (h)
T4 construct: purchased Millipore (radiometric assay service)
T4 sequence (P04629 33-796): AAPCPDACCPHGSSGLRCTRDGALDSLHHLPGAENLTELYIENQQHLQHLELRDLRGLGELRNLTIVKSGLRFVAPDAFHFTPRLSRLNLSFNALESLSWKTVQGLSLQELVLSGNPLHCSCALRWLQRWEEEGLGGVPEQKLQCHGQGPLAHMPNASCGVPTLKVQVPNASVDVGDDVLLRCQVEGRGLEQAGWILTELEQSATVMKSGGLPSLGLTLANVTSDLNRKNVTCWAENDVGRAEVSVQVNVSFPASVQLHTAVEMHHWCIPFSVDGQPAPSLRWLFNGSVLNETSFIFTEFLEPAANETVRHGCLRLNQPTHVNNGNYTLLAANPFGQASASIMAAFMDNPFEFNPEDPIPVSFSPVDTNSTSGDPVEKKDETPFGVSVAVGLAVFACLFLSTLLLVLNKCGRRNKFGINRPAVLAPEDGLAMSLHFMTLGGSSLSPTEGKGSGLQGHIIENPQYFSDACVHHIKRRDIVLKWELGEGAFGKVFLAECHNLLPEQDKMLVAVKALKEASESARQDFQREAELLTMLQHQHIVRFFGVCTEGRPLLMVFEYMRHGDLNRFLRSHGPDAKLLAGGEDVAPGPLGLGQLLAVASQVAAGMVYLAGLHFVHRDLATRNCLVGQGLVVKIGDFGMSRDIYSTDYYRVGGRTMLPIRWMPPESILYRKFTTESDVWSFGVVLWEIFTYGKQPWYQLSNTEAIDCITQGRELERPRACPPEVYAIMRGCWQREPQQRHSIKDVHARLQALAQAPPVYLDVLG
Experimental: as §1
as §2, with “TrkA” for “Ret”, “μL” for “μl,”
as §3, §4

T1 sequence (P07949 29-1114): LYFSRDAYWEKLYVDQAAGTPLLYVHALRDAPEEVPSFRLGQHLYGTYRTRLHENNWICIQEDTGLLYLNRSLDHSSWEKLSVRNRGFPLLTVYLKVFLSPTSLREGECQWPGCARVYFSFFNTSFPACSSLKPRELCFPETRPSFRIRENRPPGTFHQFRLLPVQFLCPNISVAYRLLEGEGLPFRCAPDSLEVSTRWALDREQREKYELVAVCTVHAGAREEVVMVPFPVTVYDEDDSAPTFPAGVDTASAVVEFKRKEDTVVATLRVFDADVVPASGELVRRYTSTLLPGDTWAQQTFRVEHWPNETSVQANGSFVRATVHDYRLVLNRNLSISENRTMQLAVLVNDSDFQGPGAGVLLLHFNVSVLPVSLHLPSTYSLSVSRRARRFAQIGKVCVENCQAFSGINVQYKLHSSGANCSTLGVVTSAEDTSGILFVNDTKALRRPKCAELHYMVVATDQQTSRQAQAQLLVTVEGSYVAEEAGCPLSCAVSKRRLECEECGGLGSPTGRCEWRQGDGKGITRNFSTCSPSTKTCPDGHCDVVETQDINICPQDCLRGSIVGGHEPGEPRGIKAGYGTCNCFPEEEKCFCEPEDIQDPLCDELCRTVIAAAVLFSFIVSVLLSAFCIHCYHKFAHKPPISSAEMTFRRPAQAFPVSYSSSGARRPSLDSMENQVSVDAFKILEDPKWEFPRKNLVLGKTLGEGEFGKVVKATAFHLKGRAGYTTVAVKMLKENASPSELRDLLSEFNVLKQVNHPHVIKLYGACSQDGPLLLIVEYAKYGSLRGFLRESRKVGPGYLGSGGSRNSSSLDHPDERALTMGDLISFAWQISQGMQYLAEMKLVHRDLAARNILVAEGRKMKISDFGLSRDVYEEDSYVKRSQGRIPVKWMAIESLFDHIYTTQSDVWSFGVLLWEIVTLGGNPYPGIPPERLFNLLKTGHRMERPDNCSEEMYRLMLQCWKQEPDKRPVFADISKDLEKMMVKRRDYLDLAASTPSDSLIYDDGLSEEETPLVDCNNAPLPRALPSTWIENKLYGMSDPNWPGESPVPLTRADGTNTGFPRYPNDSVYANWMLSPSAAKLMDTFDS

Sequence: WLRRIKAWLRRIKALNRQLGVAA
- Ret Kinase Activity (%) (+SD %) (Ret): 89 (0) %
- KDR Kinase Activity (%) (+SD %) (KDR; peptide 30 μM): 27 (0) %
- KDR Kinase Activity (%) (+SD %) (KDR; peptide 100 μM): 78 (6) %
- CHK1 Kinase Activity (%) (+SD %) (CHK1; peptide 30 μM): 31 (5) %
- CHK1 Kinase Activity (%) (+SD %) (CHK1; peptide 100 μM): 54 (6) %
- TrkA Kinase Activity (%) (+SD %) (TrkA; peptide 30 μM): 6 (1) %
- TrkA Kinase Activity (%) (+SD %) (TrkA; peptide 100 μM): 17 (2) %

Sequence: KAFAKLAARLYRKALARQLGVAA
- Ret Kinase Activity (%) (+SD %) (Ret): 107 (9) %
- KDR Kinase Activity (%) (+SD %) (KDR; peptide 100 μM): 56 (4) %
- CHK1 Kinase Activity (%) (+SD %) (CHK1; peptide 100 μM): 68 (0) %
- TrkA Kinase Activity (%) (+SD %) (TrkA; peptide 100 μM): 16 (2) %

Source: patent US9327008B2, “Cell-permeant peptide-based inhibitor of kinases” (Purdue Research Foundation, priority 2008, dated 2016)
